Test results reported in IntAct's records for PubMed 22797597.

B1: TRAF2 and NCK-interacting protein kinase (Homo sapiens), Q9UKE5 (parent)
chain: MASDSPARSLDEIDLSALRDPAGIFELVELVGNGTYGQVYKGRHVKTGQLAAIKVMDVTGDEEEEIKQEINMLKKYSHHRNIATYYGAFIKKNPPGMDDQLWLVMEFCGAGSVTDLIKNTKGNTLKEEWIAYICREILRGLSHLHQHKVIHRDIKGQNVLLTENAEVKLVDFGVSAQLDRTVGRRNTFIGTPYWMAPEVIACDENPDATYDFKSDLWSLGITAIEMAEGAPPLCDMHPMRALFLIPRNPAPRLKSKKWSKKFQSFIESCLVKNHSQRPATEQLMKHPFIRDQPNERQVRIQLKDHIDRTKKKRGEKDETEYEYSGSEEEEEENDSGEPSSILNLPGESTLRRDFLRLQLANKERSEALRRQQLEQQQRENEEHKRQLLAERQKRIEEQKEQRRRLEEQQRREKELRKQQEREQRRHYEEQMRREEERRRAEHEQEYIRRQLEEEQRQLEILQQQLLHEQALLLEYKRKQLEEQRQAERLQRQLKQERDYLVSLQHQRQEQRPVEKKPLYHYKEGMSPSEKPAWAKEVEERSRLNRQSSPAMPHKVANRISDPNLPPRSESFSISGVQPARTPPMLRPVDPQIPHLVAVKSQGPALTASQSVHEQPTKGLSGFQEALNVTSHRVEMPRQNSDPTSENPPLPTRIEKFDRSSWLRQEEDIPPKVPQRTTSISPALARKNSPGNGSALGPRLGSQPIRASNPDLRRTEPILESPLQRTSSGSSSSSSTPSSQPSSQGGSQPGSQAGSSERTRVRANSKSEGSPVLPHEPAKVKPEESRDITRPSRPASYKKAIDEDLTALAKELRELRIEETNRPMKKVTDYSSSSEESESSEEEEEDGESETHDGTVAVSDIPRLIPTGAPGSNEQYNVGMVGTHGLETSHADSFSGSISREGTLMIRETSGEKKRSGHSDSNGFAGHINLPDLVQQSHSPAGTPTEGLGRVSTHSQEMDSGTEYGMGSSTKASFTPFVDPRVYQTSPTDEDEEDEESSAAALFTSELLRQEQAKLNEARKISVVNVNPTNIRPHSDTPEIRKYKKRFNSEILCAALWGVNLLVGTENGLMLLDRSGQGKVYNLINRRRFQQMDVLEGLNVLVTISGKKNKLRVYYLSWLRNRILHNDPEVEKKQGWITVGDLEGCIHYKVVKYERIKFLVIALKNAVEIYAWAPKPYHKFMAFKSFADLQHKPLLVDLTVEEGQRLKVIFGSHTGFHVIDVDSGNSYDIYIPSHIQGNITPHAIVILPKTDGMEMLVCYEDEGVYVNTYGRITKDVVLQWGEMPTSVAYIHSNQIMGWGEKAIEIRSVETGHLDGVFMHKRAQRLKFLCERNDKVFFASVRSGGSSQVFFMTLNRNSMMNW

Variants of: B1
Conditions: with STK26, Q9P289-1
STK26, Q9P289-1, sequence (Q9P289 whole entry, looked up): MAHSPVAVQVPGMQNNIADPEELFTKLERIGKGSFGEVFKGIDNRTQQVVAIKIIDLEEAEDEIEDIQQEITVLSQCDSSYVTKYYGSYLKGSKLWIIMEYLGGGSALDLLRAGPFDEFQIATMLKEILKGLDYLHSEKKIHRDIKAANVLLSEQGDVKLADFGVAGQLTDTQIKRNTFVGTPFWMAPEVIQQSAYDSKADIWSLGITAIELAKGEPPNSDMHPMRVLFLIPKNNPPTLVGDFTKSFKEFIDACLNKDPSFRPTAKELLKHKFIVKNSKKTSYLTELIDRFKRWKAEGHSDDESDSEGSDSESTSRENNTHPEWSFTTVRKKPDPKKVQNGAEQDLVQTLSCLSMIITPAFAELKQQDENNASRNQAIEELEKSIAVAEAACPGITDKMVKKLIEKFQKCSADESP

Variant	effect of a mutation on the interaction
R152A;D153A	increasing interaction strength
K54A	increasing interaction strength
